Assay results published in patent US20060241051A1 (Takeda / Millennium, published 2006).
Square brackets hold non-standard residues; d marks the D form. Primed or numbered codes have the meaning given here. Ends that are not written are not given here. * marks the point of attachment. Propanoyl(3-indol-3-yl) = O=C(CCc1c[nH]c2ccccc12)*; Phe(3-CF3) = N[C@@H](Cc1cccc(C(F)(F)F)c1)C(=O)O; Phe(3,4-F2) = N[C@@H](Cc1ccc(F)c(F)c1)C(=O)O; Phe(3-Cl) = N[C@@H](Cc1cccc(Cl)c1)C(=O)O; Phe(4-CN) = N#Cc1ccc(C[C@H](N)C(=O)O)cc1; Phe(4-Cl) = N[C@@H](Cc1ccc(Cl)cc1)C(=O)O; Phe(4-NH2) = Nc1ccc(C[C@H](N)C(=O)O)cc1; Phe(2-Cl) = N[C@@H](Cc1ccccc1Cl)C(=O)O; Phe(3-F) = N[C@@H](Cc1cccc(F)c1)C(=O)O; Phe(4-F) = N[C@@H](Cc1ccc(F)cc1)C(=O)O; 1Nal = N[C@@H](Cc1cccc2ccccc12)C(=O)O; 2Nal = N[C@@H](Cc1ccc2ccccc2c1)C(=O)O; Phe(2-F) = N[C@@H](Cc1ccccc1F)C(=O)O; Arg(Me) = CNC(=N)NCCC[C@H](N)C(=O)O; Fmoc = O=C(OCC1c2ccccc2-c2ccccc21)*; d3Pal = N[C@H](Cc1cccnc1)C(=O)O; Arg(Et)′ = not defined here; azaGly = NNC(=O)O

B1: Compound No. 60: [Pya(3)10]MS10 (peptide)
peptide: YNWNSFGLRX
modifications: Pya(3)10; C-terminal amide
B2: Compound No. 258: [D-Pya(3)1,AzaGly7,Arg(Me)9]MS10 (peptide)
peptide: [d3Pal]NWNSF[azaGly]L[Arg(Me)]F-NH2
modifications: N-terminus assumed
SMILES: CNC(=N)NCCC[C@H](NC(=O)[C@H](CC(C)C)NC(=O)NNC(=O)[C@H](Cc1ccccc1)NC(=O)[C@H](CO)NC(=O)[C@H](CC(N)=O)NC(=O)[C@H](Cc1c[nH]c2ccccc12)NC(=O)[C@H](CC(N)=O)NC(=O)[C@H](N)Cc1cccnc1)C(=O)N[C@@H](Cc1ccccc1)C(N)=O
B3: Compound No. 82: [Arg(Me)9]MS10 (peptide)
peptide: YNWNSFGL[Arg(Me)]F-NH2
B4: Compound No. 318: [D-Tyr1,AzaGly7,Arg(Me)9,Phe(4F)10]MS10 (peptide)
peptide: [dY]NWNSF[azaGly]L[Arg(Me)][Phe(4-F)]-NH2
B5: Compound No. 200: [Phe(3CF3)10]MS10 (peptide)
peptide: YNWNSFGLR[Phe(3-CF3)]-NH2
B6: Compound No. 265: des(1-3)-Indole-3-carbonyl-[AzaGly7,Arg(Me)9]MS10 (peptide)
peptide: {Indole‑3‑carbonyl}-NSF[azaGly]L[Arg(Me)]F-NH2
notes: also called des(1-3)-Indole-3-carboxyl-[AzaGly7,Arg(Me)9]MS10
B7: Compound No. 328: des(1-3)-D-Glucuronyl-[AzaGly7,Arg(Me)9]MS10 (peptide)
peptide: {D‑Glucuronyl}-NSF[azaGly]L[Arg(Me)]F-NH2
B8: Compound No. 19: [Phe(2F)10]MS10 (peptide)
peptide: YNWNSFGLR[Phe(2-F)]-NH2
B9: Compound No. 142: [D-Tyr1,D-Trp3,Arg(Me)9]MS10 (peptide)
peptide: [dY]N[dW]NSFGL[Arg(Me)]F-NH2
B10: Compound No. 198: [Phe(3,4F2)10]MS10 (peptide)
peptide: YNWNSFGLR[Phe(3,4-F2)]-NH2
B11: Compound No. 260: des(1-3)-3-(3-Indolyl)propionyl-[AzaGly7,Arg(Me)9]MS10 (peptide)
peptide: {Propanoyl(3-indol-3-yl)}-NSF[azaGly]L[Arg(Me)]F-NH2
B12: Compound No. 256: des(1)-[D-Pya(3) 2,Phe3,AzaGly7,Arg(Me)9]MS10 (peptide)
peptide: [d3Pal]FNSF[azaGly]L[Arg(Me)]F-NH2
B13: Compound No. 289: des(1)-[D-Pya(3) 2,AzaGly7,Arg(Me)9]MS10 (peptide)
peptide: [d3Pal]WNSF[azaGly]L[Arg(Me)]F-NH2
modifications: N-terminus assumed
SMILES: CNC(=N)NCCC[C@H](NC(=O)[C@H](CC(C)C)NC(=O)NNC(=O)[C@H](Cc1ccccc1)NC(=O)[C@H](CO)NC(=O)[C@H](CC(N)=O)NC(=O)[C@H](Cc1c[nH]c2ccccc12)NC(=O)[C@H](N)Cc1cccnc1)C(=O)N[C@@H](Cc1ccccc1)C(N)=O
notes: also called [D-Pya(3)2,AzaGly7,Arg(Me)9]MS10-(2-10)
B14: Compound No. 130: [Phe(4Cl)10]MS10 (peptide)
peptide: YNWNSFGLR[Phe(4-Cl)]-NH2
B15: Compound No. 61: [Phe(4F)10]MS10 (peptide)
peptide: YNWNSFGLR[Phe(4-F)]-NH2
B16: Compound No. 192: [D-Tyr1,Arg(Et)9]MS10 (peptide)
peptide: [dY]NWNSFGL[Arg(Et)′]F-NH2
B17: Compound No. 77: [Phe(4CN)10]MS10 (peptide)
peptide: YNWNSFGLR[Phe(4-CN)]-NH2
B18: Compound No. 255: des(1)-[D-Tyr2,Nal(2) 3,AzaGly7,Arg(Me)9]MS10 (peptide)
peptide: [dY][2Nal]NSF[azaGly]L[Arg(Me)]F-NH2
B19: Compound No. 220: [Arg(Et)9]MS10 (peptide)
peptide: YNWNSFGLR(Et)F-NH2
B20: Compound No. 197: [Phe(3F)10]MS10 (peptide)
peptide: YNWNSFGLR[Phe(3-F)]-NH2
B21: Compound No. 145: des(1-2)-Fmoc-[Arg(Me)9]MS10 (peptide)
peptide: Fmoc-WNSFGL[Arg(Me)]F-NH2
SMILES: CNC(=N)NCCC[C@H](NC(=O)[C@H](CC(C)C)NC(=O)CNC(=O)[C@H](Cc1ccccc1)NC(=O)[C@H](CO)NC(=O)[C@H](CC(N)=O)NC(=O)[C@H](Cc1c[nH]c2ccccc12)NC(=O)OCC1c2ccccc2-c2ccccc21)C(=O)N[C@@H](Cc1ccccc1)C(N)=O
B22: Compound No. 254: des(1)-[D-Tyr2,Phe3,AzaGly7,Arg(Me)9]MS10 (peptide)
peptide: [dY]FNSF[azaGly]L[Arg(Me)]F-NH2
B23: Compound No. 244: [D-Tyr1,Phe3,AzaGly7,Arg(Me)9]MS10 (peptide)
peptide: [dY]NFNSF[azaGly]L[Arg(Me)]F-NH2
B24: Compound No. 288: [D-Tyr1,D-His2,AzaGly7,Arg(Me)9]MS10 (peptide)
peptide: [dY][dH]WNSF[azaGly]L[Arg(Me)]F-NH2
B25: Compound No. 284: [D-Tyr1,D-Asn2,Thr3,AzaGly7,Arg(Me)9]MS10 (peptide)
peptide: [dY][dN]TNSF[azaGly]L[Arg(Me)]F-NH2
modifications: N-terminus assumed
SMILES: CNC(=N)NCCC[C@H](NC(=O)[C@H](CC(C)C)NC(=O)NNC(=O)[C@H](Cc1ccccc1)NC(=O)[C@H](CO)NC(=O)[C@H](CC(N)=O)NC(=O)[C@@H](NC(=O)[C@@H](CC(N)=O)NC(=O)[C@H](N)Cc1ccc(O)cc1)[C@@H](C)O)C(=O)N[C@@H](Cc1ccccc1)C(N)=O
B26: Compound No. 250: [D-Tyr1,Phe(4NH2) 3,AzaGly7,Arg(Me)9]MS10 (peptide)
peptide: [dY]N[Phe(4-NH2)]NSF[azaGly]L[Arg(Me)]F-NH2
B27: Compound No. 249: [D-Tyr1,Phe(4Cl) 3,AzaGly7,Arg(Me)9]MS10 (peptide)
peptide: [dY]N[Phe(4-Cl)]NSF[azaGly]L[Arg(Me)]F-NH2
B28: Compound No. 287: [D-Tyr1,D-Ser2,AzaGly7,Arg(Me)9]MS10 (peptide)
peptide: [dY][dS]WNSF[azaGly]L[Arg(Me)]F-NH2
B29: Compound No. 257: [D-Tyr1,D-Asn2,Phe3,AzaGly7,Arg(Me)9]MS10 (peptide)
peptide: [dY][dN]FNSF[azaGly]L[Arg(Me)]F-NH2
B30: Compound No. 247: [D-Tyr1,Phe(2CL) 3,AzaGly7,Arg(Me)9]MS10 (peptide)
peptide: [dY]N[Phe(2-Cl)]NSF[azaGly]L[Arg(Me)]F-NH2
B31: Compound No. 248: [D-Tyr1,Phe(3Cl) 3,AzaGly7,Arg(Me)9]MS10 (peptide)
peptide: [dY]N[Phe(3-Cl)]NSF[azaGly]L[Arg(Me)]F-NH2
modifications: N-terminus assumed
SMILES: CNC(=N)NCCC[C@H](NC(=O)[C@H](CC(C)C)NC(=O)NNC(=O)[C@H](Cc1ccccc1)NC(=O)[C@H](CO)NC(=O)[C@H](CC(N)=O)NC(=O)[C@H](Cc1cccc(Cl)c1)NC(=O)[C@H](CC(N)=O)NC(=O)[C@H](N)Cc1ccc(O)cc1)C(=O)N[C@@H](Cc1ccccc1)C(N)=O
B32: Compound No. 259: [D-Ala1,AzaGly7,Arg(Me)9]MS10 (peptide)
peptide: [dA]NWNSF[azaGly]L[Arg(Me)]F-NH2
B33: Compound No. 245: [D-Tyr1,Nal(1)3,AzaGly7,Arg(Me)9]MS10 (peptide)
peptide: [dY]N[1Nal]NSF[azaGly]L[Arg(Me)]F-NH2
modifications: N-terminus assumed
SMILES: CNC(=N)NCCC[C@H](NC(=O)[C@H](CC(C)C)NC(=O)NNC(=O)[C@H](Cc1ccccc1)NC(=O)[C@H](CO)NC(=O)[C@H](CC(N)=O)NC(=O)[C@H](Cc1cccc2ccccc12)NC(=O)[C@H](CC(N)=O)NC(=O)[C@H](N)Cc1ccc(O)cc1)C(=O)N[C@@H](Cc1ccccc1)C(N)=O
B34: Compound No. 246: [D-Tyr1,Nal(2) 3,AzaGly7,Arg(Me)9]MS10 (peptide)
peptide: [dY]N[2Nal]NSF[azaGly]L[Arg(Me)]F-NH2
modifications: N-terminus assumed
SMILES: CNC(=N)NCCC[C@H](NC(=O)[C@H](CC(C)C)NC(=O)NNC(=O)[C@H](Cc1ccccc1)NC(=O)[C@H](CO)NC(=O)[C@H](CC(N)=O)NC(=O)[C@H](Cc1ccc2ccccc2c1)NC(=O)[C@H](CC(N)=O)NC(=O)[C@H](N)Cc1ccc(O)cc1)C(=O)N[C@@H](Cc1ccccc1)C(N)=O

Experiments:
[1] = target: T1, human OT7T175 (metastin receptor) (human, UniProt Q969F8 1-398); assay: FMAT competition with Cy-5-labeled metastin (40-54), hOT7T175-expressed CHO cells
T1 construct: expressed on CHO cells (hOT7T175-expressed CHO cells; hOT7T175/CHO); also called hOT7T175; h0T7T175
Protocol: h0T7T175-Expressed CHO cells were cultured in MEM-α medium (nucleic acid-free) containing 10% dialyzed serum. The medium was removed and the adherent cells were washed with PBS. Then, PBS containing 5 mM EDTA was added and the cells were scraped from a flask with a cell scraper. […] To each well of a 96-Well Black Clear Bottom Plate (Applied Biosystems, Inc.), 10 μL of assay buffer containing 1% dimethylsulfoxide was added to examine total binding, 10 μL of 10 μM non-labeled peptide (having the same amino acid sequence as that of the labeled one) solution diluted with assay buffer to examine non-specific binding, and 10 μL of a test compound diluted with assay buffer to examine the binding inhibition activity of the test compound, respectively. Furthermore, 90 μL each of the cell suspension was dispensed to each well. […] The specific binding is a value obtained by subtracting the non-specific binding from the total binding.

[2] = target: T1, human OT7T175 (metastin receptor); assay: cell-based or functional assay

T1 sequence (Q969F8 whole entry L364H): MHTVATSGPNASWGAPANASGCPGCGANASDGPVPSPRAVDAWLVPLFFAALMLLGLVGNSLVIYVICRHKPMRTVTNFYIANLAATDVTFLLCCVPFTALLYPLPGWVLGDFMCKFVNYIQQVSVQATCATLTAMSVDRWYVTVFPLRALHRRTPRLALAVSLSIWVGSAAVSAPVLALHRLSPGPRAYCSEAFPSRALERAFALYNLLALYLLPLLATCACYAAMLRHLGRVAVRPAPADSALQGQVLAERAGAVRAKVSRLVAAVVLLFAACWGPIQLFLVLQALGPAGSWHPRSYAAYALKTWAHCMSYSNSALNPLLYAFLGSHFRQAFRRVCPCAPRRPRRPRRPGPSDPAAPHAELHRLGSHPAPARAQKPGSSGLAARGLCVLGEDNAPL

Binder	IC50 [1] [nM]	intracellular Ca ion level-increasing activity (FLIPR) [2]
B1	170	–
B2	90	2 specific activity to metastin (1-54)
B3	4.1	–
B4	0.99	–
B5	340	–
B6	95	3 specific activity to metastin (1-54)
B7	470	–
B8	8.6	–
B9	26	–
B10	170	–
B11	320	5 specific activity to metastin (1-54)
B12	22	1 specific activity to metastin (1-54)
B13	8.4	1 specific activity to metastin (1-54)
B14	42	–
B15	13	–
B16	530	–
B17	7.4	–

Binder	IC50 [1] [nM]	intracellular Ca ion level-increasing activity (FLIPR) [2]
B18	33	1 specific activity to metastin (1-54)
B19	330	–
B20	170	–
B21	120	–
B22	11	1 specific activity to metastin (1-54)
B23	77	1 specific activity to metastin (1-54)
B24	0.072	1 specific activity to metastin (1-54)
B25	34	1 specific activity to metastin (1-54)
B26	3.7	1 specific activity to metastin (1-54)
B27	150	1 specific activity to metastin (1-54)
B28	2.3	2 specific activity to metastin (1-54)
B29	40	3 specific activity to metastin (1-54)
B30	45	1 specific activity to metastin (1-54)
B31	58	2 specific activity to metastin (1-54)
B32	250	1 specific activity to metastin (1-54)
B33	98	1 specific activity to metastin (1-54)
B34	7.1	2 specific activity to metastin (1-54)
